Test results: paper PMC3689661, “Plant Kinesin-Like Calmodulin Binding Protein Employs Its Regulatory Domain for Dimerization” (PLoS ONE, 2013)
Values belong to the molecule of their own block, whether it stands above or below them.

What was measured:
[1] = target: His-tagged KIC (Arabidopsis) (UniProt Q9ZPX9); test: SEC; Superdex-200 run of the KCBP-KIC complex that had been isolated on Ni-NTA agarose; in the presence of Ca2+
[2] = target: KCBP (construct not stated, in the KCBP-KIC complex) (Arabidopsis); test: as above
[3] = target: the molecule itself; test: SEC; Superdex 200 16/60; 50 mM Tris pH 7.5, 150 mM NaCl, 2 mM MgCl2, 0.1 mM ATP, 1 mM TCEP, and either 1 mM EGTA or 2 mM CaCl2; isolated proteins

stoichiometry N [1]: 2
Molecule: His-tagged KIC (from UniProt Q9ZPX9 1-135) (natural protein)

stoichiometry N [2]: 2
Molecule: KCBP (construct not stated, in the KCBP-KIC complex) (domain or fragment)

B1: Arabidopsis KIC (29–135) (domain or fragment, UniProt Q9ZPX9 29-135, looked up)
chain: MAEKMDVEEFVSELCKGFSLLADPERHLITAESLRRNSGILGIEGMSKEDAQGMVREGDLDGDGALNQTEFCVLMVRLSPEMMEDAETWLEKALTQELCNHNLSSMP
notes: KIC, Ca2+ ion sensor and regulator of KCBP, Arabidopsis, residues 29-135; The results speak of a deletion of the first 35 N-terminal residues; The tag's removal is told only in the general purification methods; source: E. coli BL21(DE3), purified (Ni-NTA, TEV-protease); not shown: His6-TRX, N-terminal, cleaved
stoichiometry N [3]: 2

B2: Arabidopsis KCBP (820–1225) (domain or fragment, UniProt Q9FHN8 820-1225, looked up)
chain: NSDMLLLQNNLKELEELREMKEDIDRKNEQTAAILKMQGAQLAELEILYKEEQVLRKRYYNTIEDMKGKIRVYCRIRPLNEKESSEREKQMLTTVDEFTVEHPWKDDKRKQHIYDRVFDMRASQDDIFEDTKYLVQSAVDGYNVCIFAYGQTGSGKTFTIYGHESNPGLTPRATKELFNILKRDSKRFSFSLKAYMVELYQDTLVDLLLPKSARRLKLEIKKDSKGMVFVENVTTIPISTLEELRMILERGSERRHVSGTNMNEESSRSHLILSVVIESIDLQTQSAARGKLSFVDLAGSERVKKSGSAGCQLKEAQSINKSLSALGDVIGALSSGNQHIPYRNHKLTMLMSDSLGGNAKTLMFVNVSPAESNLDETYNSLLYASRVRTIVNDPSKHISSKEMVRL
notes: with the predicted N-terminal dimerization motif, without the regulatory helix; pET32 Xa/Lic; the tag's removal is told only in the general purification methods; the motility assay held motors by an anti-His antibody; also called N-terminal dimer of KCBP without the regulatory helix; source: E. coli BL21(DE3), purified (Ni-NTA, TEV-protease); not shown: His6-Trx, N-terminal, cleaved
stoichiometry N [3]: 2

B3: Arabidopsis KCBP (884–1253) (domain or fragment, UniProt Q9FHN8 884-1253, looked up)
chain: DMKGKIRVYCRIRPLNEKESSEREKQMLTTVDEFTVEHPWKDDKRKQHIYDRVFDMRASQDDIFEDTKYLVQSAVDGYNVCIFAYGQTGSGKTFTIYGHESNPGLTPRATKELFNILKRDSKRFSFSLKAYMVELYQDTLVDLLLPKSARRLKLEIKKDSKGMVFVENVTTIPISTLEELRMILERGSERRHVSGTNMNEESSRSHLILSVVIESIDLQTQSAARGKLSFVDLAGSERVKKSGSAGCQLKEAQSINKSLSALGDVIGALSSGNQHIPYRNHKLTMLMSDSLGGNAKTLMFVNVSPAESNLDETYNSLLYASRVRTIVNDPSKHISSKEMVRLKKLVAYWKEQAGKKGEEEDLVDIEEDRT
notes: motor domain with intact regulatory helix and negative coil; pET28b construct encoding a tag-free protein; source: E. coli BL21(DE3), purified (Calmodulin-Sepharose 4B)
stoichiometry N [3]: 2

B4: full length Arabidopsis KIC (1–135) (natural protein, UniProt Q9ZPX9 1-135, looked up)
chain: MEPTEKSMLLETTSTTKMETKYEDMLPVMAEKMDVEEFVSELCKGFSLLADPERHLITAESLRRNSGILGIEGMSKEDAQGMVREGDLDGDGALNQTEFCVLMVRLSPEMMEDAETWLEKALTQELCNHNLSSMP
notes: KIC, Ca2+ ion sensor and regulator of KCBP, Arabidopsis, residues 1-135; The tag's removal is told only in the general purification methods; source: E. coli BL21(DE3), purified (Ni-NTA, TEV-protease); not shown: His6, N-terminal, cleaved
stoichiometry N [3]: 2
